Measured values from US20250313626A1 (HARBOUR BIOMED SHANGHAI, published 2025).
Positions count from the first letter of the chain named.

T1: human CD200R1 isoform a on CHOK1 cells (CHOK1/hCD200R1a) (human, UniProt Q8TD46 25-348)
T1 construct: also called CHOK1/CD200R1a
T1 sequence: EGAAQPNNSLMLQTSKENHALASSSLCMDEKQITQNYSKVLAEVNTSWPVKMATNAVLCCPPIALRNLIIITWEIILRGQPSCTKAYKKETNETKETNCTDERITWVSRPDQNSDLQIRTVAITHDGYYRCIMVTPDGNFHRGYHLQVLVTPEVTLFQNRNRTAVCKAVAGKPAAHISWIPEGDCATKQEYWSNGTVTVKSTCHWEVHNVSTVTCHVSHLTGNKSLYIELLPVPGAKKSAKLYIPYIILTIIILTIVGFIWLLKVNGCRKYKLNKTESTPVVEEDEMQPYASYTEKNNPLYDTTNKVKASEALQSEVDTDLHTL

T2: Mouse CD200R1-His (mouse, UniProt Q9ES57 26-238, limits assumed)
T2 sequence (looked up): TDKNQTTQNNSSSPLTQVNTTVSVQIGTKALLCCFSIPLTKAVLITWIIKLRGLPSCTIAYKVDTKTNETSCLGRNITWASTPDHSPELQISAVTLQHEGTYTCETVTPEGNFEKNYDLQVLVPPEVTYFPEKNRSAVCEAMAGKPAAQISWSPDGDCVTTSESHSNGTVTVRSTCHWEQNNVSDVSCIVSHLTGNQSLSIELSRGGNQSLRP

T3: Cyno CD200R1a-His (Cynomolgus macaques, UniProt Q8TD46 25-265 (human entry))
T3 construct: Soluble protein used in BLI; also called Cynomolgus macaques CD200R1a recombinant protein; not shown: His tag
T3 chain: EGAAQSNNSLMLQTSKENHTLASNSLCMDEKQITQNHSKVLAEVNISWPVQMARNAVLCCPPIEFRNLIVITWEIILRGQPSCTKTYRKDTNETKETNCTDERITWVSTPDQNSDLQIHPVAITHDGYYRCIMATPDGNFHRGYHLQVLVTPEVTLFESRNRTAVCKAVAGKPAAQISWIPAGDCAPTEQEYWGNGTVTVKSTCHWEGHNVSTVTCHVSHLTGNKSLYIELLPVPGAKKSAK

T4: human CD200R1a protein (soluble recombinant) (human, UniProt Q8TD46 29-265)
T4 construct: Soluble protein used in BLI; also called human CD200R1 isoform a; not shown: His tag implied by capture on anti-Penta-HIS biosensors
T4 sequence: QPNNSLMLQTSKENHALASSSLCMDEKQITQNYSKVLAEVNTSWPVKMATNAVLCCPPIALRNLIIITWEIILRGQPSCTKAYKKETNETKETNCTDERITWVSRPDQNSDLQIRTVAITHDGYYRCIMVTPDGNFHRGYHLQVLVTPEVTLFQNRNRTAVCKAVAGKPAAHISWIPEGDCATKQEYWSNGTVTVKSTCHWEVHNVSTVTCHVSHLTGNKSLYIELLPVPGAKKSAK

B1: PR002906 (antibody, V domains shown)
VH: QVQLQESGPGLVKPSETLSLTCTVSGYTITSGYDWSWIRQPPGKGLEWIGYINYGGSTNYKPSLGSRVTISVDTSKNQFSLKLSSVTAADTAVYYCARYNEYKSYIYDWYFDFWGQGTLVTVSS
VL: DIQMTQSPSSLSASVGDRVTITCKASKNIRSYLAWYQQKPGKAPKLLIYSGSTLHSGVPSRFSGSGSGTDFTLTISSLQPEDFATYYCQQHHEYPLTFGQGTKVEIKR
notes: also called recombinant IgG1 antibody of huDX182
B2: PR006480 (antibody, human IgG1, kappa, L234A L235A)
heavy: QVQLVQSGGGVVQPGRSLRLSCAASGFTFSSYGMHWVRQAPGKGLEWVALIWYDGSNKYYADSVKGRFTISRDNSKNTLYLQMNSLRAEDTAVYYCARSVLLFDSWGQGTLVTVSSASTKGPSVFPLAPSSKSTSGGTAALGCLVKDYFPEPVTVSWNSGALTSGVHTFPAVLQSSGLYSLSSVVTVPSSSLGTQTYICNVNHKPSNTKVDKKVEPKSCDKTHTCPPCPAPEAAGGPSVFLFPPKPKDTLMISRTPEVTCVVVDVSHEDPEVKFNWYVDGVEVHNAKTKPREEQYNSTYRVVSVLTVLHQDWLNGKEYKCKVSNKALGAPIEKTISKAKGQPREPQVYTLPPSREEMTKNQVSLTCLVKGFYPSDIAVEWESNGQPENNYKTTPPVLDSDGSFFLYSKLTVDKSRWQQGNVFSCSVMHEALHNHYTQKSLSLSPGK
light: DIQMTQSPPSLSASVGDRVTITCRASQSISSYLNWFQQKAGKAPKLLISATSNLQSGVPSRFSGSGSGTDFTLTISSLQPEDLATYYCQQSYSSPYTFGQGTKVEIKRTVAAPSVFIFPPSDEQLKSGTASVVCLLNNFYPREAKVQWKVDNALQSGNSQESVTEQDSKDSTYSLSSTLTLSKADYEKHKVYACEVTHQGLSSPVTKSFNRGEC
notes: also called PR6480
B3: PR007223 (antibody, human IgG1, kappa)
heavy: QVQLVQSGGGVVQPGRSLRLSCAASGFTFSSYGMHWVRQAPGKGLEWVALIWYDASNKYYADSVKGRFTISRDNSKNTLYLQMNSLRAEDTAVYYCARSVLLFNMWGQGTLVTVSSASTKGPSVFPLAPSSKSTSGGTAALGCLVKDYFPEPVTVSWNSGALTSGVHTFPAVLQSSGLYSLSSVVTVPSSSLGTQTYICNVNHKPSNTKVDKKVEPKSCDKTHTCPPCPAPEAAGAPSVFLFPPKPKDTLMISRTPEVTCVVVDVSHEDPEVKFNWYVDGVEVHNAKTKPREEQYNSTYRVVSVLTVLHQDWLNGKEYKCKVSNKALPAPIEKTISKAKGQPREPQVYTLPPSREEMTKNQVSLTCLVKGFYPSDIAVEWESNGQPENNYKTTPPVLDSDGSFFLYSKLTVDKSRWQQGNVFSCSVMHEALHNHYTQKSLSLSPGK
light: B2 light with M4L, S91T
notes: PTM variant of PR006895 (human IgG1)
B4: PR007221 (antibody, human IgG1, kappa)
heavy: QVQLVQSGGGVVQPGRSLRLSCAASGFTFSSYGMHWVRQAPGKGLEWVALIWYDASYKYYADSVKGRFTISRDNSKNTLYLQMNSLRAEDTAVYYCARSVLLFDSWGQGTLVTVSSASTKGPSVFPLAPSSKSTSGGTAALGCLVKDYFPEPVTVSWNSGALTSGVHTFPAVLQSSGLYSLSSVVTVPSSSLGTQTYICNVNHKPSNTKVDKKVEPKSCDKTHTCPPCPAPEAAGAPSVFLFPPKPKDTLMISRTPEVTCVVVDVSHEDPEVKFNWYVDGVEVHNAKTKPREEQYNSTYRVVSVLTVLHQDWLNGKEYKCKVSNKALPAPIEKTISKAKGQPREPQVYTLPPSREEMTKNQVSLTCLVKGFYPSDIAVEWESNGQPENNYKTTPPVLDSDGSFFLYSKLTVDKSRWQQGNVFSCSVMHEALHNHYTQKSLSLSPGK
light: B2 light with M4L, S91T, Y92L
notes: as for B3
B5: PR005509 (antibody, human IgG1, kappa, L234A L235A, V domains shown)
VH: QVQLVESGGGVVQPGRSLRLSCAASGFTFSSYGFHWVRQAPGKGLEWLGLIWSDGSNKYYADSVKGRFTISRDNSKNTLYLQMNSLRAEDTAVYYCARDRIVGAGFDYWGQGTLVTVSS
VL: not shown
B6: PR005474 (antibody, human IgG1, kappa, L234A L235A, V domains shown)
VH: B5 VH with G26A, F34M, L48V, G49A, S53N, Y59F, Y80F, V102L
VL: not shown
B7: PR007973 (antibody, human IgG1, kappa, V domains shown)
VH: B5 VH with L50I, G55A, A104E
VL: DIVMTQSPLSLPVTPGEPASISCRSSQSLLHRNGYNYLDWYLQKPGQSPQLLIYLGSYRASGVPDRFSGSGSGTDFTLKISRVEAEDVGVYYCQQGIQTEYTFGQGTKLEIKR
notes: PTM variant of PR006839 (human IgG1)

Each binder was assayed against T1, human CD200R1 isoform a on CHOK1 cells … (assay: flow cytometry, CHOK1/hCD200R1a cells (FITC-Mean); table beside the curves).
Description: This example is intended to investigate the in vitro binding activity of human anti-CD200R1 monoclonal antibodies to human/Cynomolgus macaques CD200R1a expressed on the surface of cells. The anti-CD200R1 antibodies were produced as described in Example 3.4 and the binding experiments at the cell level were performed using CHOK1/hCD200R1a and CHOK1-cynoCD200R1a.
Briefly, CHOK1/hCD200R1a cells and CHOK1-cynoCD200R1a cells were digested, and collected, and then were resuspended in PBS containing 2% BSA, respectively. The cell density was adjusted to 1×10⁶ cells/mL. The cells were seeded in a 96-well V-bottom plate (Corning, #3894) at 100 μL/well, followed by the addition of test antibodies and reference antibodies in a series diluted concentration, each at 100 μL/well. The cells were incubated away from light at 4° C. for 1 h. Thereafter, the cells in each well were rinsed twice with 100 μL of pre-cooled PBS containing 2% BSA, and centrifuged at 500 g at 4° C. for 5 min, and then the supernatant was discarded. 100 μL of fluorescent secondary antibody (Alexa Fluor 488-conjugated AffiniPure Goat Anti-Human IgG, Fcγ Fragment Specific, Jackson, #109-545-098, diluted in a 1:1000 ratio) was added in each well, and the plate was incubated away from light at 4° C. for 1 h. The cells in each well were rinsed twice with 100 μL of pre-cooled PBS containing 2% BSA, and centrifuged at 500 g at 4° C. for 5 min, and then the supernatant was discarded. Finally, the cells in each well were resuspended in 200 μL of pre-cooled PBS containing 2% BSA, and the fluorescence signal values were read using a BD CantoII flow cytometer.
For B1, the “MFI(Max)” value was 11100.
In the case of B2, the “MFI(Max)” value is reported as 8890.
For B3, the “MFI(Max)” value was 9890.
For B4, the “MFI(Max)” value was 11100.

What follows are binders tested against T2, Mouse CD200R1-His (assay: BLI (Octet), antibody captured on anti-human Fc sensor).
Description: (§1) To determine the binding affinities of the anti-CD200R1 antibodies to CD200R1a proteins of various species (mouse, human, Cynomolgus macaques), bio-layer interferometry (BLI) assays were carried out using an Octet® RED96e instrument. Antibodies were produced as described in Example 3.4 and diluted to 5 μg/mL using freshly prepared 1× kinetic buffer (10× kinetic buffer (Catalog #18-1105, ForteBio) was diluted with PBS(Catalog #E607016-0500, BBI Life Sciences)) and were captured on the surface of anti-human Fc (AHC) Octet biosensors (Catalog #18-5060, ForteBio) to reach capture levels between 0.9-1.2 nm. The biosensors having the captured anti-CD200R1 antibodies were then dipped in wells containing 2-fold serial dilutions of CD200R1a proteins to detect association signals, followed by dissociation steps in wells containing 1× kinetic buffer. The sensorgrams were recorded and the reference signals were subtracted before curve fitting using ForteBio Data Analysis 11.0 software. Association rates (kₒₙ) and dissociation rates (koff) were calculated using a simple one-to-one Langmuir binding model. The equilibrium dissociation constant (KD) was calculated as the ratio of koff/kₒₙ.
B5: no binding.
B6: no binding.
B7: no binding.
B2: no binding.
B3: no binding.
B4: no binding.

Molecular target: T3, Cyno CD200R1a-His
Experiment: BLI (Octet), antibody captured on anti-human Fc sensor, soluble CD200R1a as analyte, 1:1 fit
Description: as §1
In the case of B5, the Kd is reported as 146 nM, the koff is reported as 0.0275 s⁻¹ and the kon is reported as 189000 M⁻¹ s⁻¹.
B6 showed a Kd of 147 nM, a koff of 0.0287 s⁻¹ and a kon of 196000 M⁻¹ s⁻¹.
Binder B7 has a Kd of 10.2 nM, a koff of 0.000151 s⁻¹ and a kon of 14900 M⁻¹ s⁻¹.
With B2 the Kd was 104 nM, the koff was 0.00713 s⁻¹ and the kon was 68500 M⁻¹ s⁻¹.
Binder B3 has a Kd of 16.3 nM, a koff of 0.0014 s⁻¹ and a kon of 86000 M⁻¹ s⁻¹.
B4 was tested, and the Kd was 12.5 nM, the koff was 0.000776 s⁻¹ and the kon was 62100 M⁻¹ s⁻¹.

The binders below were run against T4, human CD200R1a protein (soluble …) in the same assay as above.
Description: as §1
With B5 the Kd was 7.74 nM, the koff was 0.000511 s⁻¹ and the kon was 66100 M⁻¹ s⁻¹.
B6 gave a Kd of 16.6 nM, a koff of 0.00101 s⁻¹ and a kon of 60700 M⁻¹ s⁻¹.
B7 gave a Kd of 1.06 nM, a koff of 5.97e-05 s⁻¹ and a kon of 56200 M⁻¹ s⁻¹.
With B1 the Kd was 39.3 nM, the koff was 0.00341 s⁻¹ and the kon was 86700 M⁻¹ s⁻¹.
B2 gave a Kd of 14.3 nM, a koff of 0.000476 s⁻¹ and a kon of 33300 M⁻¹ s⁻¹.
Binder B3 has a Kd of 2.07 nM, a koff of 0.000133 s⁻¹ and a kon of 64200 M⁻¹ s⁻¹.
With B4 the Kd was 4.34 nM, the koff was 0.000211 s⁻¹ and the kon was 48600 M⁻¹ s⁻¹.

The binders below were run against T1, human CD200R1 isoform a on CHOK1 cells … (assay: flow cytometry, CHOK1/hCD200R1a cells (FITC-Mean); table beside the curves, head without unit, x axis Log [Ab] (nM)).
In the case of B1, the EC50 is reported as 0.292 nM.
For B2, the EC50 was 0.124 nM.
For B3, the EC50 was 0.133 nM.
In the case of B4, the EC50 is reported as 0.172 nM.
